Source: patent US20210230570

Chain of Factor X (FX), P00742 (P00742 whole entry, looked up): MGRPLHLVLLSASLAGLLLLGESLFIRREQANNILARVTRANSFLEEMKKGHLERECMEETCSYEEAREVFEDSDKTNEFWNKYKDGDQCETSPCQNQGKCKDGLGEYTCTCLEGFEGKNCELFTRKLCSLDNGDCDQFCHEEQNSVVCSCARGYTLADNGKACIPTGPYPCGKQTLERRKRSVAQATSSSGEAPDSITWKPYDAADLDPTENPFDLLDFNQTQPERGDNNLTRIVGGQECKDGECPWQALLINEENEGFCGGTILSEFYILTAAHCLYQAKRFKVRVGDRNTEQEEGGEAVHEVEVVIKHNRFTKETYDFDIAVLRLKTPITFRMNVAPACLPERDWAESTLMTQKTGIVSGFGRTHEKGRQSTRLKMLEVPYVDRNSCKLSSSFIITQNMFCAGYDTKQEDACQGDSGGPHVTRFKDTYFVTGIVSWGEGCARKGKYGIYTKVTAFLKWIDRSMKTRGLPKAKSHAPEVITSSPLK
Chain of Factor X, P00742 (P00742 whole entry, looked up): as above

| Protein | kcat (Factor X, P00742) [s⁻¹] | KM of FX activation by FIXa in the Xase complex (FVIIIa, PC/PS vesicles, Ca2+) (Factor X (FX), P00742) [µM] | also measured |
| --- | --- | --- | --- |
| FIXa K293E/R338E/R403E (protein) chain 1: YNSGKLEEFVQGNLERECMEEKCSFEEAREVFENTERTTEFWKQYVDGDQCESNPCLNGGSCKDDINSYECWCPFGFEGKNCELDVTCNIKNGRCEQFCKNSADNKVVCSCTEGYRLAENQKSCEPAVPFPCGRVSVSQTSKLTR chain 2: VVGGEDAKPGQFPWQVVLNGKVDAFCGGSIVNEKWIVTAAHCVETGVKITVVAGEHNIEETEHTEQKRNVIRIIPHHNYNAAINKYNHDIALLELDEPLVLNSYVTPICIADEEYTNIFLKFGSGYVSGWGRVFHKGRSALVLQYLRVPLVDRATCLESTKFTIYNNMFCAGFHEGGRDSCQGDSGGPHVTEVEGTSFLTGIISWGEECAMKGKYGIYTKVSEYVNWIKEKTKLT | 0.8 | – | – |
| FIXa-Y155F/R318Y/R403E/E410N (protein) chain 1: YNSGKLEEFVQGNLERECMEEKCSFEEAREVFENTERTTEFWKQYVDGDQCESNPCLNGGSCKDDINSYECWCPFGFEGKNCELDVTCNIKNGRCEQFCKNSADNKVVCSCTEGYRLAENQKSCEPAVPFPCGRVSVSQTSKLTR chain 2: VVGGEDAKPGQFPWQVVLNGKVDAFCGGSIVNEKWIVTAAHCVETGVKITVVAGEHNIEETEHTEQKRNVIRIIPHHNYNAAINKYNHDIALLELDEPLVLNSYVTPICIADKEYTNIFLKFGSGYVSGWGRVFHKGYSALVLQYLRVPLVDRATCLRSTKFTIYNNMFCAGFHEGGRDSCQGDSGGPHVTEVEGTSFLTGIISWGEECAMKGKYGIYTKVSEYVNWIKNKTKLT | – | – | kcat/KM (M^-1s^-1), FX activation by FIXa in the Xase complex (Factor X (FX), P00742): 3.6e+07 M⁻¹ s⁻¹ |
| FIXa variant A103N/N105S/Y155F/R318Y/R338E/R403E/E410N (mature FIX numbering) (protein) chain 1: YNSGKLEEFVQGNLERECMEEKCSFEEAREVFENTERTTEFWKQYVDGDQCESNPCLNGGSCKDDINSYECWCPFGFEGKNCELDVTCNIKNGRCEQFCKNSNDSKVVCSCTEGYRLAENQKSCEPAVPFPCGRVSVSQTSKLTR chain 2: VVGGEDAKPGQFPWQVVLNGKVDAFCGGSIVNEKWIVTAAHCVETGVKITVVAGEHNIEETEHTEQKRNVIRIIPHHNYNAAINKYNHDIALLELDEPLVLNSYVTPICIADKEYTNIFLKFGSGYVSGWGRVFHKGYSALVLQYLRVPLVDRATCLESTKFTIYNNMFCAGFHEGGRDSCQGDSGGPHVTEVEGTSFLTGIISWGEECAMKGKYGIYTKVSEYVNWIKNKTKLT | – | 0.0507 | – |
| FIXa R318Y/R338E/R403E (protein) chain 1: YNSGKLEEFVQGNLERECMEEKCSFEEAREVFENTERTTEFWKQYVDGDQCESNPCLNGGSCKDDINSYECWCPFGFEGKNCELDVTCNIKNGRCEQFCKNSADNKVVCSCTEGYRLAENQKSCEPAVPFPCGRVSVSQTSKLTR chain 2: VVGGEDAKPGQFPWQVVLNGKVDAFCGGSIVNEKWIVTAAHCVETGVKITVVAGEHNIEETEHTEQKRNVIRIIPHHNYNAAINKYNHDIALLELDEPLVLNSYVTPICIADKEYTNIFLKFGSGYVSGWGRVFHKGYSALVLQYLRVPLVDRATCLESTKFTIYNNMFCAGFHEGGRDSCQGDSGGPHVTEVEGTSFLTGIISWGEECAMKGKYGIYTKVSEYVNWIKEKTKLT | 3.5 | – | – |
| FIXa-D104N/K106S/Y155F/K247N/N249S/R318Y/R338E/R403E/E410N (protein) chain 1: YNSGKLEEFVQGNLERECMEEKCSFEEAREVFENTERTTEFWKQYVDGDQCESNPCLNGGSCKDDINSYECWCPFGFEGKNCELDVTCNIKNGRCEQFCKNSANNSVVCSCTEGYRLAENQKSCEPAVPFPCGRVSVSQTSKLTR chain 2: VVGGEDAKPGQFPWQVVLNGKVDAFCGGSIVNEKWIVTAAHCVETGVKITVVAGEHNIEETEHTEQNRSVIRIIPHHNYNAAINKYNHDIALLELDEPLVLNSYVTPICIADKEYTNIFLKFGSGYVSGWGRVFHKGYSALVLQYLRVPLVDRATCLESTKFTIYNNMFCAGFHEGGRDSCQGDSGGPHVTEVEGTSFLTGIISWGEECAMKGKYGIYTKVSEYVNWIKNKTKLT | – | – | kcat/KM (Factor X (FX), P00742): 1.3e+08 M⁻¹ s⁻¹ |
| FIXa R318Y/R338E/E410N (protein) chain 1: YNSGKLEEFVQGNLERECMEEKCSFEEAREVFENTERTTEFWKQYVDGDQCESNPCLNGGSCKDDINSYECWCPFGFEGKNCELDVTCNIKNGRCEQFCKNSADNKVVCSCTEGYRLAENQKSCEPAVPFPCGRVSVSQTSKLTR chain 2: VVGGEDAKPGQFPWQVVLNGKVDAFCGGSIVNEKWIVTAAHCVETGVKITVVAGEHNIEETEHTEQKRNVIRIIPHHNYNAAINKYNHDIALLELDEPLVLNSYVTPICIADKEYTNIFLKFGSGYVSGWGRVFHKGYSALVLQYLRVPLVDRATCLESTKFTIYNNMFCAGFHEGGRDSCQGDSGGPHVTEVEGTSFLTGIISWGEECAMKGKYGIYTKVSRYVNWIKNKTKLT | 4.6 | – | – |
| FIXa variant D104N/K106S/Y155F/R318Y/R338E/R403E/E410N (mature FIX numbering) (protein) chain 1: YNSGKLEEFVQGNLERECMEEKCSFEEAREVFENTERTTEFWKQYVDGDQCESNPCLNGGSCKDDINSYECWCPFGFEGKNCELDVTCNIKNGRCEQFCKNSANNSVVCSCTEGYRLAENQKSCEPAVPFPCGRVSVSQTSKLTR chain 2: VVGGEDAKPGQFPWQVVLNGKVDAFCGGSIVNEKWIVTAAHCVETGVKITVVAGEHNIEETEHTEQKRNVIRIIPHHNYNAAINKYNHDIALLELDEPLVLNSYVTPICIADKEYTNIFLKFGSGYVSGWGRVFHKGYSALVLQYLRVPLVDRATCLESTKFTIYNNMFCAGFHEGGRDSCQGDSGGPHVTEVEGTSFLTGIISWGEECAMKGKYGIYTKVSEYVNWIKNKTKLT | – | 0.048 | – |
| FIXa variant Y155F/R318Y/R338E/R403E/E410N (mature FIX numbering) (protein) chain 1: YNSGKLEEFVQGNLERECMEEKCSFEEAREVFENTERTTEFWKQYVDGDQCESNPCLNGGSCKDDINSYECWCPFGFEGKNCELDVTCNIKNGRCEQFCKNSADNKVVCSCTEGYRLAENQKSCEPAVPFPCGRVSVSQTSKLTR chain 2: VVGGEDAKPGQFPWQVVLNGKVDAFCGGSIVNEKWIVTAAHCVETGVKITVVAGEHNIEETEHTEQKRNVIRIIPHHNYNAAINKYNHDIALLELDEPLVLNSYVTPICIADKEYTNIFLKFGSGYVSGWGRVFHKGYSALVLQYLRVPLVDRATCLESTKFTIYNNMFCAGFHEGGRDSCQGDSGGPHVTEVEGTSFLTGIISWGEECAMKGKYGIYTKVSEYVNWIKNKTKLT | – | 0.0304 | – |
| FIXa variant D203N/F205T/R318Y/E410N (mature FIX numbering) (protein) chain 1: YNSGKLEEFVQGNLERECMEEKCSFEEAREVFENTERTTEFWKQYVDGDQCESNPCLNGGSCKDDINSYECWCPFGFEGKNCELDVTCNIKNGRCEQFCKNSADNKVVCSCTEGYRLAENQKSCEPAVPFPCGRVSVSQTSKLTR chain 2: VVGGEDAKPGQFPWQVVLNGKVNATCGGSIVNEKWIVTAAHCVETGVKITVVAGEHNIEETEHTEQKRNVIRIIPHHNYNAAINKYNHDIALLELDEPLVLNSYVTPICIADKEYTNIFLKFGSGYVSGWGRVFHKGYSALVLQYLRVPLVDRATCLRSTKFTIYNNMFCAGFHEGGRDSCQGDSGGPHVTEVEGTSFLTGIISWGEECAMKGKYGIYTKVSRYVNWIKNKTKLT | – | 0.0457 | – |
| FIXa R318Y/R338E/R403E/E410N (protein) chain 1: YNSGKLEEFVQGNLERECMEEKCSFEEAREVFENTERTTEFWKQYVDGDQCESNPCLNGGSCKDDINSYECWCPFGFEGKNCELDVTCNIKNGRCEQFCKNSADNKVVCSCTEGYRLAENQKSCEPAVPFPCGRVSVSQTSKLTR chain 2: VVGGEDAKPGQFPWQVVLNGKVDAFCGGSIVNEKWIVTAAHCVETGVKITVVAGEHNIEETEHTEQKRNVIRIIPHHNYNAAINKYNHDIALLELDEPLVLNSYVTPICIADKEYTNIFLKFGSGYVSGWGRVFHKGYSALVLQYLRVPLVDRATCLESTKFTIYNNMFCAGFHEGGRDSCQGDSGGPHVTEVEGTSFLTGIISWGEECAMKGKYGIYTKVSEYVNWIKNKTKLT | 5 | – | – |
